Measurements published in article PMC9606946, “Programmed Aptamer Screening, Characterization, and Rapid Detection for α-Conotoxin MI”.
Values joined by “and” are separate entries in the source; they are usually repeats but may differ in a detail not shown here. Identical values can stand only once. Where no end group is shown, it is not given here.

T1: alpha-conotoxin MI (CTX-MI) (Conus magus, UniProt P01521 1-14, disulfide (positions not given here); not fully specified; also: two disulfides as in P01521)
T1 chain: GRCCHPACGKNYSC-NH2


Target: T1, alpha-conotoxin MI (CTX-MI)
Assay: BLI
Settings: protein: commercial; tags: none; label: biotin

Row | Binder | Kd [nM]
1 | MBMI-01 (ssDNA) DNA: ATTGGCACTCCACGCATAGGTTTGGGGATGGGCAACGGTAAAAAGGGTCAAAAGGCTTTTCCTATGCGTGCTACCGTGAA | 850
2 | MBMI-02 (ssDNA) DNA: ATTGGCACTCCACGCATAGGATTTGGGTTTCGGGATAAGGGGCAAAAGGACAGGTTTTGTCCTATGCGTGCTACCGTGAA | 2210
3 | MBMI-03 (ssDNA) DNA: ATTGGCACTCCACGCATAGGGGCGCTTGTGGTGTAAGGGTTGGGTATATGTCGTAATAGGCCTATGCGTGCTACCGTGAA | 3490
4 | ATTTGGGTTTCGGGATAAGGGGCAAAAGGACAGGTTTTGT (ssDNA) [MBMI-02c] | 1290
5 | CTCGCGGAGGGAGGGGTTTTGGGGGGCGGGATGGTATTGG (ssDNA) [MBMI-92c] | 1320
6 | MBMI-08 (ssDNA) DNA: ATTGGCACTCCACGCATAGGCAACGGGGGGGTGGGGAGAGAAGGGTTGAGTGACAATTTGCCTATGCGTGCTACCGTGAA | 12000
7 | MBMI-22 (ssDNA) DNA: ATTGGCACTCCACGCATAGGCAAGAAGGGGGAGGGTGGTATGTGTCGGGGGGAGGGGTGGCCTATGCGTGCTACCGTGAA | 21200
8 | MBMI-39 (ssDNA) DNA: ATTGGCACTCCACGCATAGGGTAGGGGATTTAAGGAGGGGCCTTAGGAGGGGGGGGGTAACCTATGCGTGCTACCGTGAA | 430
9 | MBMI-51 (ssDNA) DNA: ATTGGCACTCCACGCATAGGAAGGTGGAATCGGAGGGGGTGCTTGGGTGGGGGTGGGATTCCTATGCGTGCTACCGTGAA | 14000
10 | MBMI-92 (ssDNA) DNA: ATTGGCACTCCACGCATAGGCTCGCGGAGGGAGGGGTTTTGGGGGGCGGGATGGTATTGGCCTATGCGTGCTACCGTGAA | 260
11 | MBMI-94 (ssDNA) DNA: ATTGGCACTCCACGCATAGGAGCGGGGTTGGTTTGCGGGAGGGGGGGTGGAGGTAAGCTCCCTATGCGTGCTACCGTGAA | 2330

Same assay, conditions: protein: commercial; tags: none; label: biotin; antiparallel G-quadruplex

Row | Binder | Kd
12 | TTTGGGGATGGGCAACGGTAAAAAGGGTCAAAAGGCTTTT (structured_DNA) [MBMI-01c] | 870 nM and 729 nM

Same assay, conditions: protein: commercial; tags: none; label: biotin; remaining predicted GQ core A

Row | Binder | Kd [nM]
13 | TTTGGCCATGGCCAACGGTAAAAAGGCTCAAAACCCTTTT (ssDNA) [M2] | 741

Same assay, conditions: protein: commercial; tags: none; label: biotin; remaining predicted GQ cores A,B

Row | Binder | Kd [nM]
14 | TTTGGGGATGGGCAACGGTAAAAAGGGTCAAAACCCTTTT (ssDNA) [M3] | 1560

Same assay, conditions: protein: commercial; tags: none; label: biotin; remaining predicted GQ cores C,D

Row | Binder | Kd [nM]
15 | TTTCCGGATGGGCAACGGTAAAAAGGGTCAAAAGGCTTTT (ssDNA) [M1] | 1520
